Test [1] has as its target T1, EpCAM on DU145, PC3 and MCF-7 cancer cells (Homo sapiens (DU145, PC3, MCF-7), UniProt P16422).
T1 construct: Epithelial cell adhesion molecule (EpCAM), endogenous on the three EpCAM+ human cancer cell lines DU145, PC3 and MCF-7; also called Epithelial cell adhesion molecule; source: endogenous, on DU145, PC3 and MCF-7 cells
Kind of test: flow cytometry on cells; cells (1 × 10^6/mL) incubated with the sdAbs at 4°C for 1 h; detection with FITC-conjugated protein A; 293T and 3T3 cells as negative controls. The settings on record: one partner purified. (Flow cytometry measures light scatter and fluorescence of single cells or particles in a stream.)

Test [2] deals with T2, EpCAM complete extracellular domain protein (Homo sapiens (assumed), UniProt P16422).
T2 construct: Epithelial cell adhesion molecule (EpCAM), complete extracellular domain, bought; Commercial protein; no catalogue number, limits or tags printed; source: bought: Shanghai Bootech BioSci. and Technol
T2 sequence (P16422 24-265): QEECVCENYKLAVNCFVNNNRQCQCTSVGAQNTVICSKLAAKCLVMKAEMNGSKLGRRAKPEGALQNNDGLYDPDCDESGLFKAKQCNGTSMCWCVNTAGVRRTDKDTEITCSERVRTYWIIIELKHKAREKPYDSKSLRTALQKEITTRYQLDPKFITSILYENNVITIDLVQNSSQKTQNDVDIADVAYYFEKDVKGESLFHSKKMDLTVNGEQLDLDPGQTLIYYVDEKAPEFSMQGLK
The test can be described thus: ELISA; 0.2 μg of antigen coated per well at 4°C overnight; purified sdAb at 1 μg/mL, RT 1 h; detection with HRP-conjugated protein A, absorbance at 450 nm. The settings on record: both partners purified. On the technique in general: ELISA stands for enzyme-linked immunosorbent assay.

T1 sequence (P16422 24-314): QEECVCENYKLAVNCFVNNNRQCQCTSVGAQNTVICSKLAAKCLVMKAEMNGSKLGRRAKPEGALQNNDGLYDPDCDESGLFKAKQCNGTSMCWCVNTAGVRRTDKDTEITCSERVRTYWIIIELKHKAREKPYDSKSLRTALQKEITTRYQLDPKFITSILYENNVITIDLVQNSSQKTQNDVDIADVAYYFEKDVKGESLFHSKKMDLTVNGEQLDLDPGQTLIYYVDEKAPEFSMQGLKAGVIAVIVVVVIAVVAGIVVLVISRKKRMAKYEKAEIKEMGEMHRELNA

B1: aEP3B2 (VHH)
VHH: QVQLLESGGGLVQPGGSLRLSCAASGDRVSYKFMAWVRQAPGKGLEWVSSIRGNDGSTYYADSVKGRFTISRDNSKNTLYLQMNSLRAEDTAVYYCARKGKRHYELPYWGQGTLVTVSS
notes: fully human VH single-domain antibody from a phage library (Source BioScience); Human VH-only sdAb (not camelid), not Fc-fused; cloned into pET-22b by Not I and Nco I sites; also called anti-EpCAM sdAb aEP3B2; source: E. coli BL21 (DE3), purified (Ni-NTA)
Turning to B1, the binding result in test [1] and in test [2] was “binds” in each case.

B2: aEP3D4 (VHH)
VHH: QVQLLESGGGLVQPGGSLRLSCAASGVKFSNHDMTWVRQAPGKGLEWVSAINSGGGSTYYADSVKGRFTISRDNSKNTLYLQMNSLRAEDTAVYYCARMGRQARVPHHMRFWGQGTLVTVSS
notes: fully human VH single-domain antibody from a phage library (Source BioScience); Human VH-only sdAb (not camelid), not Fc-fused; cloned into pET-22b by Not I and Nco I sites; also called anti-EpCAM sdAb aEP3D4; source: E. coli BL21 (DE3), purified (Ni-NTA)
As for B2, the binding result in test [1] and in test [2] was “binds” throughout.

B3: aEP4G2 (VHH)
VHH: QVQLLESGGGLVQPGGSLRLSCAASGFTFSYNNMAWVRQAPGKGLEWVSAIEGKDGSTYYADSVKGRFTISRDNSKNTLYLQMNSLRAEDTAVYYCARRKGRTEKLSYWGQGTLVTVSS
notes: fully human VH single-domain antibody from a phage library (Source BioScience); Human VH-only sdAb (not camelid), not Fc-fused; cloned into pET-22b by Not I and Nco I sites; also called anti-EpCAM sdAb aEP4G2; source: E. coli BL21 (DE3), purified (Ni-NTA)
As for B3, the binding result in test [1] and in test [2] was “binds” in each case.

B4: aEP5A5 (VHH)
VHH: QVQLLESGGGLVQPGGSLRLSCAASGVRFSNEVMAWVRQAPGKGLEWVSGIEMKNGSTYYADSVKGRFTISRDNSKNTLYLQMNSLRAEDTAVYYCASWGHSRRQQSKFNSWGQGTLVTVSS
notes: fully human VH single-domain antibody from a phage library (Source BioScience); Human VH-only sdAb (not camelid), not Fc-fused; cloned into pET-22b by Not I and Nco I sites; also called anti-EpCAM sdAb aEP5A5; source: E. coli BL21 (DE3), purified (Ni-NTA)
For the molecule B4, in test [1], the binding result is reported as “binds”.

B5: aEP4D11 (VHH)
VHH: QVQLLESGGGLVQPGGSLRLSCAASGVKIIPKSMAWVRQAPGKGLEWVSTIETADGSTYYADSVKGRFTISRDNSKNTLYLQMNSLRAEDTAVYYCASVSRSRTNSLKSWGQGTLVTVSS
notes: fully human VH single-domain antibody from a phage library (Source BioScience); Human VH-only sdAb (not camelid), not Fc-fused; cloned into pET-22b by Not I and Nco I sites; also called anti-EpCAM sdAb aEP4D11; source: E. coli BL21 (DE3), purified (Ni-NTA)
For B5, the binding result in test [1] and in test [2] was “binds” each time.

Source of the values: article PMC11865060, “Novel human single-domain antibodies exert potent anti-tumor activity by targeting EGF-like repeat epitope of EpCAM” (Frontiers in Pharmacology, 2025).
